{
  "source": "patent US12006519B2",
  "about": "“Polymerase mutants and use with 3′-OH unblocked reversible terminators” (Agilent Technologies, Inc., priority 2021, dated 2024)",
  "assay_type_in_all_cases": "biochemical",
  "key": {"LTA-2": {"test_system": "LTA-2", "experiment": "Template-independent incorporation of LTA-2, LTU-2, LTG-2, LTC-2 to priming strands", "description": "The template-independent DNA synthesis reactions employed 7.5 U TdT (Promega) or 180 nM (3×over primer) Pfu26 (D141A/E143A/A486L/Y546H/K477W/L409Y) or Pfu48 (D141A/E143A/A486R/Y546H/K477W/L409Y). Varying concentrations of dATP were added to 2 μM (TdT) or 60 nM (Pfu) T7 FOR primer (6′Fam […]) (SEQ ID NO:6) in duplicate reactions containing 1×TdT buffer with CoCl2(Promega) or 1×ThermoPol buffer (NEB). Reactions were incubated for 30 min. at 37° C. (TdT) or 60° C. (Pfu), and then inactivated with heat (TdT; 10 min. at 70° C.) or EDTA (1 ul 500 uM EDTA). Reaction products were exposed to UV using a Stratalinker (15-watt bulbs, […], 10 min). Reactions were diluted in water (TdT, 1:333; Pfu, 1:10) and 1 μl (TdT) or 0.5 μl (Pfu) aliquots were brought up to 10 μl with HiDI/LIZ 120 Size Standard. Products were heated at 95° C. for 5 min., cooled on ice for 2 min., and then analyzed on an ABI 3500 capillary electrophoresis system ([…] capillary, filter set #5, assay=GE5 LIZ120).\nIn this example, primer extension was carried out with LTA-2 (FIG. 1F) as a Rp+Sp racemic mixture of α-thiotriphosphate, using the conditions described in Example 7.\nIn further experiments, single-base extension reactions (10 ul) were performed with an equimolar mixture (3 uM each) of two single-stranded oligommcleotides:\nBoth were labeled with Fam but distinguishable by their lengths using capillary electrophoresis. Primer extension reactions were performed using the following three Pfu mutants at a concentration of 18 nM polymerase: • Pfu10: Pfu polymerase with D141A/E143A/A486L/Y546H/K477W mutations (SEQ ID NO:2) • Pfu26: Pfu polymerase with D141A/E143A/A486L/Y546H/K477W/L409Y mutations (SEQ ID NO:4) • Pfu48: Pfu polymerase with D141A/E143A/A486R/Y546H/K477W/L409Y mutations (SEQ ID NO:5) The extension reactions also employed individual αS-modified LTs in Rp+Sp racemic mixture (namely, LTA-2, LTU-2, LTG-2, and LTC-2) at final concentrations of 5 uM. LTU-2, LTG-2, and LTC-2 are all C7 or C5-hydroxymethyl-a-tert-butyl-2-nitrobenzyl modified reversible terminators like LTA-2, with uracil, guanine, and cytosine in place of adenine. […] Reactions were incubated, stopped, UV-treated, and analyzed as described in Example 7.\n(§1) Primer extensions were carried out in duplicate 25 ul reactions containing 7.5 U calf thymus TdT, 1×Promega TdT buffer (with CoCl2), varying concentrations of LTA-1 (100 uM, 50 uM, 10 uM, 5 uM, or 1 uM), and either 2 uM (FIG. 11A to 11C) or 80 nM (FIG. 11D to 11F) of a priming strand (Fam-labeled T7 F primer (6Fam […]), SEQ ID NO:8). Controls were performed without the addition of a polymerase. Primer extensions were also carried out in reactions containing the Pfu26 mutant polymerase, 60 nM of the priming strand, and various concentrations (10 μM or 5 μM or 1 μM) of LTA-1 or LTA-2."}, "LTA-1": {"test_system": "LTA-1", "experiment": "Template-independent incorporation of LTA-1 to a priming strand", "description": "This example tested the addition of a 3′-OH unblocked reversible terminator (LTA-1, shown in FIG. 1E, or LTA-2, shown in FIG. 1F) to the 3′ end of a single-stranded priming strand. The extension reaction was performed with 2 uM or 80 nM of a priming strand and varying concentrations (100/50/10/5/1 μM) of the reversible terminator. The performance of the Pfu26 polymerase was compared to TdT polymerase.\nas §1\nReactions were incubated at 37° C. for 30 min., and then heat-killed for 10 min. at 70° C. Reaction products were split in half, and one-half was treated with UV as described in Example 7. Reactions were then diluted 1:333 (2 uM primer) or 1:13 (80 nM primer) in water, and 0.5 ul portions were analyzed by capillary electrophoresis using the conditions provided in Example 7."}, "Lightning Terminators [1]": {"test_system": "Lightning Terminators", "experiment": "Sequencing-by-synthesis with Lightning Terminators (87 cycles)", "set-up": "ARL (87 cycles) / Lead + Lag / Leading / Lagging: unit not given here", "settings": "alternative polymerases (D141A/E143A), same protein concentrations (0.02 ug/uL in cycle 1 and 0.002 ug/uL in cycles 2-n)", "description": "This section generally describes how the present mutant polymerases were used for sequencing-by-synthesis, and how their performance in sequencing was measured. Sequencing was performed on a breadboard instrument, essentially as described in Hertzog D, et al., “A high-performance, low-cost approach to next-generation sequencing”, BioOptics World. 2011 Issue November/December 2011.\nIn this example, mutations were introduced into the DNA polymerase of SEQ ID NO: 12 (Therminator) in an attempt to improve its capability in sequencing with 3′-OH unblocked terminators. Such mutations to Thermococcus sp. 9° N DNA polymerase are disclosed in U.S. Pat. Nos. 9,273,352; 9,677,059; 9,765,309; U.S. Pat. App. Publication No. 20160032377. The following table summarizes sequencing metrics with Lightning Terminators.\nAs used in this example and those that follow, “Lead+Lag” refers to dephasing errors in Sequencing by Synthesis technology caused by either reading the next base signal (Lead) or reading the previous base signal (Lag) relative to current base signals. Such errors may arise because of imperfect incoporation of reversible terminators by the polymerase.\nIn this example, mutant polymerases were created by introducing certain mutations (D141A/E143A/A485L) which are present in Therminator. The three mutations were introduced at the equivalent positions in JDF3 (Thermococcus sp. JDF3) and Pfu (Pyrococcus furisosus) DNA polymerases. The new mutant polymerases were then evaluated for their performance in sequencing with Lightning Terminators, as described above."}, "Lightning Terminators [2]": {"test_system": "Lightning Terminators", "experiment": "Plate-based assay, incorporation of Lightning Terminators by control extracts", "settings": "control extracts, FIG. 6, FIGS. 7A-7B", "description": "In this example, additional mutant polymerases were derived from Pfu polymerase. To generate the mutants, eighty-seven codons in the Pfu pol B gene were saturated using the QuikChange Lightning Mutagenesis kit and oligonucleotides containing “NDT” codons to create R, N, D, C, G, H, I, L, F, S, Y, and V substitutions with equal frequency. In some cases, mutants missing from NDT libraries were prepared in a separate QuikChange reaction with an equimolar mixture of mutagenic oligos encoding the remaining mutations (A, T, K, Q, E, P, […], W). Thirty-two clones were randomly selected from each QuikChange library (with the exception of T267, Y403, Y410, I475, G499 and K675 libraries which generated fewer transformants). Bacterial lysates were prepared and screened for incorporation of LTA and LTC using a plate-based assay with immobilized primer-templates. A limited number of mutants were also screened for utilization of LTG and LTU (similar trends; data not shown). After washing and UV cleavage (to minimize dye quenching effects), plates were read and fluorescent signals compared to Pfu controls. The following table identifies four mutant Pfu polymerases that served as controls, which were given the arbitrary names Pfu5, Pfu1, and Pfu2, along with Pfu10 (which is discussed above).\nSelected lysates, based on screening results, were submitted for sequencing, and an amino acid identification was made based on the selections. […] As shown in Example 3, K477W benefits sequencing by increasing the fraction of full-length reads."}},
  "note": "“Also recorded” adds a separate entry of the source.",
  "data": [
    {"molecule": "TdT: commercially available preparation of calf thymus terminal deoxynucleotidyl transferase (Promega) (protein, UniProt P06526 1-509, looked up) DNA nucleotidylexotransferase: MDPLCTASSGPRKKRPRQVGASMASPPHDIKFQNLVLFILEKKMGTTRRNFLMELARRKGFRVENELSDSVTHIVAENNSGSEVLEWLQVQNIRASSQLELLDVSWLIESMGAGKPVEITGKHQLVVRTDYSATPNPGFQKTPPLAVKKISQYACQRKTTLNNYNHIFTDAFEILAENSEFKENEVSYVTFMRAASVLKSLPFTIISMKDTEGIPCLGDKVKCIIEEIIEDGESSEVKAVLNDERYQSFKLFTSVFGVGLKTSEKWFRMGFRSLSKIMSDKTLKFTKMQKAGFLYYEDLVSCVTRAEAEAVGVLVKEAVWAFLPDAFVTMTGGFRRGKKIGHDVDFLITSPGSAEDEEQLLPKVINLWEKKGLLLYYDLVESTFEKFKLPSRQVDTLDHFQKCFLILKLHHQRVDSSKSNQQEGKTWKAIRVDLVMCPYENRAFALLGWTGSRQFERDIRRYATHERKMMLDNHALYDKTKRVFLKAESEEEIFAHLGLDYIEPWERNA", "values": [
      {"measurement": "Template-independent incorporation of LTA-2 (in words)", "setting": "LTA-2; single-stranded priming strand", "value": "did not incorporate the LTA-2 terminator as efficiently as dATP; also recorded: failed to incorporate LTA-2"},
      {"measurement": "Template-independent incorporation of LTA-1 (in words)", "setting": "LTA-1", "value": "incorporates LTA-1 much more efficiently than the more highly substituted LTA-2"},
      {"measurement": "Termination efficiency with LTA-1", "setting": "LTA-1", "value": "poor"},
      {"measurement": "Bases incorporated in a single synthesis cycle", "setting": "LTA-1; LTA-1, 80 nM primer", "value": "> 3", "unit": "bases"},
      {"measurement": "Bases incorporated in a single synthesis cycle", "setting": "LTA-1; LTA-1, 2 uM primer", "value": 3, "unit": "bases"}
    ]},
    {"molecule": "Pfu1: Pfu DNA polymerase with D141A/E143A/A486L (protein, UniProt P61875 1-775, looked up, variant D141A E143A A486L) DNA polymerase: MILDVDYITEEGKPVIRLFKKENGKFKIEHDRTFRPYIYALLRDDSKIEEVKKITGERHGKIVRIVDVEKVEKKFLGKPITVWKLYLEHPQDVPTIREKVREHPAVVDIFEYDIPFAKRYLIDKGLIPMEGEEELKILAFAIATLYHEGEEFGKGPIIMISYADENEAKVITWKNIDLPYVEVVSSEREMIKRFLRIIREKDPDIIVTYNGDSFDFPYLAKRAEKLGIKLTIGRDGSEPKMQRIGDMTAVEVKGRIHFDLYHVITRTINLPTYTLEAVYEAIFGKPKEKVYADEIAKAWESGENLERVAKYSMEDAKATYELGKEFLPMEIQLSRLVGQPLWDVSRSSTGNLVEWFLLRKAYERNEVAPNKPSEEEYQRRLRESYTGGFVKEPEKGLWENIVYLDFRALYPSIIITHNVSPDTLNLEGCKNYDIAPQVGHKFCKDIPGFIPSLLGHLLEERQKIKTKMKETQDPIEKILLDYRQKLIKLLANSFYGYYGYAKARWYCKECAESVTAWGRKYIELVWKELEEKFGFKVLYIDTDGLYATIPGGESEEIKKKALEFVKYINSKLPGLLELEYEGFYKRGFFVTKKRYAVIDEEGKVITRGLEIVRRDWSEIAKETQARVLETILKHGDVEEAVRIVKEVIQKLANYEIPPEKLAIYEQITRPLHEYKAIGPHVAVAKKLAAKGVKIKPGMVIGYIVLRGDGPISNRAILAEEYDPKKHKYDAEYYIENQVLPAVLRILEGFGYRKEDLRYQKTRQVGLTSWLNIKKS", "values": [
      {"measurement": "% reads >85", "setting": "Lightning Terminators [1]", "value": 9.9, "unit": "%"},
      {"measurement": "ARL (87 cycles)", "setting": "Lightning Terminators [1]", "value": 54.9},
      {"measurement": "Lead + Lag", "setting": "Lightning Terminators [1]", "value": 2.1},
      {"measurement": "Utilization of Lightning Terminators (in words)", "setting": "Lightning Terminators [2]", "value": "could utilize Lightning Terminators"}
    ]},
    {"molecule": "Pfu48: Pfu D141A/E143A/A486R/Y546H/K477W/L409Y, SEQ ID NO:5 (protein, Mutant of Pyrococcus furiosus Polymerase) MILDVDYITEEGKPVIRLFKKENGKFKIEHDRTFRPYIYALLRDDSKIEEVKKITGERHGKIVRIVDVEKVEKKFLGKPITVWKLYLEHPQDVPTIREKVREHPAVVDIFEYDIPFAKRYLIDKGLIPMEGEEELKILAFAIATLYHEGEEFGKGPIIMISYADENEAKVITWKNIDLPYVEVVSSEREMIKRFLRIIREKDPDIIVTYNGDSFDFPYLAKRAEKLGIKLTIGRDGSEPKMQRIGDMTAVEVKGRIHFDLYHVITRTINLPTYTLEAVYEAIFGKPKEKVYADEIAKAWESGENLERVAKYSMEDAKATYELGKEFLPMEIQLSRLVGQPLWDVSRSSTGNLVEWFLLRKAYERNEVAPNKPSEEEYQRRLRESYTGGFVKEPEKGLWENIVYLDFRAYYPSIIITHNVSPDTLNLEGCKNYDIAPQVGHKFCKDIPGFIPSLLGHLLEERQKIKTKMKETQDPIEWILLDYRQKRIKLLANSFYGYYGYAKARWYCKECAESVTAWGRKYIELVWKELEEKFGFKVLYIDTDGLHATIPGGESEEIKKKALEFVKYINSKLPGLLELEYEGFYKRGFFVTKKRYAVIDEEGKVITRGLEIVRRDWSEIAKETQARVLETILKHGDVEEAVRIVKEVIQKLANYEIPPEKLAIYEQITRPLHEYKAIGPHVAVAKKLAAKGVKIKPGMVIGYIVLRGDGPISNRAILAEEYDPKKHKYDAEYYIENQVLPAVLRILEGFGYRKEDLRYQKTRQVGLTSWLNIKKS", "values": [
      {"measurement": "Template-independent incorporation of LTA-2, LTU-2, LTG-2 and LTC-2 (in words)", "setting": "LTA-2; 18 nM polymerase, 5 uM terminators, CE2 and T7 oligonucleotides", "value": "superior to Calf thymus Terminal Transferase (TdT)"}
    ]}
  ]
}
